Legend:
[1] = target: Giardia lamblia macrophage migration inhibitory factor (Giardia lamblia ATCC 50803); test: crystal structure
[2] = target: Giardia lamblia macrophage migration inhibitory factor (Giardia lamblia ATCC 50803); test: SEC

Giardia lamblia macrophage migration inhibitory factor (natural protein)
stoichiometry N [1]: 3
stoichiometry N [2]: 3
